We go through 7 molecules from US20110165170A1 (Pfizer, published 2011).

Positions count from the first letter of the chain named. Like-named read-outs stand apart in the source and are kept apart here.

The target of test [1] is T1, recombinant human osteopontin (R&D Systems #1433-OP/CF, carrier free) (human, UniProt P10451 17-314, biotinylated in the capture ELISA, on the SET plates and on the Biacore streptavidin chip).
T1 construct: Bought protein; also called hOPN; human OPN
As to the kind of experiment: solution equilibrium titration (SET), ECL, Fab. Here is the method: Affinity determination in solution was basically performed as described in the literature (Friguet et al., J. Immunol. Methods 77:305 (1985)). In order to improve the sensitivity and accuracy of the SET method, it was transferred from classical ELISA to ECL based technology (Haenel et al., Anal. Biochem. 339:182-184 (2005)). 1 mg/mL goat-anti-human (Fab)₂ fragment specific antibodies (Dianova) were labeled with MSD Sulfo-TAG™ NHS-Ester (Meso Scale Discovery, Gaithersburg, Md., USA) according to the manufacturer's instructions. The experiments were carried out in polypropylene microtiter plates and PBS, pH 7.4, with 0.5% BSA and 0.02% Tween 20 as assay buffer. Unlabeled osteopontin was diluted in a 2n series, starting with a concentration at least 10 times higher than the expected KD. Wells without antigen were used to determine Bₘₐₓ values; wells with assay buffer were used to determine background. After addition of e.g. 25 pM Fab (final concentration in 60 μL final volume), the mixture was incubated over night at room temperature. The applied Fab concentration was similar to or below the expected KD.
Streptavidin coated MSD plates were blocked over night with 3% BSA in PBS (50 μL/well), subsequently the blocking solution was discarded and the plates were coated with […] biotinylated osteopontin in assay buffer (30 μL/well) for 1 hour. After washing the coated MSD plates with assay buffer, the equilibrated samples were transferred to those plates (30 μL/well) and incubated for 20 minutes. After washing, 30 μL/well of the MSD Sulfo-tag labeled detection antibody (goat anti-human (Fab)₂) in a final dilution of 1:1000 was added to the MSD plate and incubated for 30 minutes on an Eppendorf shaker (700 rpm).

Test [2] concerns the target T1, recombinant human osteopontin (R&D …). As to the kind of experiment: Biacore (SPR), Fab over biotinylated human OPN on streptavidin chip. The procedure:
(§1) Binding to immobilized antigen was analyzed using the BIAcore3000 instrument (Biacore, Sweden).
(§2) For antigen immobilization, two alternative strategies were used: in the case of human OPN, biotinylated human OPN was bound to a Streptavidin coated sensor chip (Biacore, Sweden) to a binding level of approximately 300 RU. The reference flow cell was coated with a similar amount of biotinylated HSA. In the case of murine OPN, the antigen was immobilized covalently using standard EDC-NHS amine coupling chemistry. CM5 chips (Biacore, Sweden) were coated with murine OPN in 10 mM acetate buffer, pH 3.5 to a level of 400 RU. For the reference flow cell, a respective amount of HSA was used. Regeneration was accomplished with two injections of 10 mM Gly/HCl, pH 1.5 (5 μL) and 50 mM phosphoric acid (5 μL), respectively. Kinetic measurements were done in Dulbeccos PBS, pH 7.4 (Gibco) with 0.05% Tween 20 at a flow rate of 20 μL/min using a 2n serial dilution row of Fab samples. The Fab concentrations ranged from 15.6 to 500 nM. The injection time for each concentration was 1 minute, and the dissociation time was set to a minimum of 3 minutes. A blank injection of running buffer was used for double referencing. All sensorgrams were fitted globally using BIA evaluation software 3.2 (Biacore, Sweden), to determine association and dissociation rate constants (kₒₙ and koff), which were used to calculate the affinity (KD=koff/kₒₙ).
For orientation: SPR reads the build-up and loss of mass on a sensor chip optically.

The target is the same in test [3]. As to the kind of experiment: cell-based or functional assay.
Test [4] has as its target T2, recombinant mouse osteopontin (R&D Systems #441-OP/CF, carrier free) (mouse, UniProt P10923 17-294, biotinylated in the capture ELISA).
T2 construct: Bought protein; also called mOPN; mouse OPN
As to the kind of experiment: Biacore (SPR), Fab over amine-coupled murine OPN on CM5 chip. Here is the method: as §1, §2

For test [5], the target named is T1, recombinant human osteopontin (R&D …). As to the kind of experiment: Biacore 3000 (SPR), IgG flowed over amine-coupled human Osteopontin; avidity, 1:1 fit. Here is the method:
(§3) Binding avidity of monoclonal antibodies to Osteopontin was determined using Biacore analysis (General Electric Healthcare, Biacore 3000). To obtain nominal avidity measurements, human Osteopontin (R&D Systems, 1433-OP-050/CF) and mouse Osteopontin (R&D Systems, 441-OP-050/CF) were immobilized on a biosensor chip using standard amine coupling and various concentrations of monoclonal antibodies (MOR6990, MOR6991 and MOR6993) were flowed across the surface at 25.0° C. in 10 mM HEPES pH 7.4, 150 mM NaCl, 0.005% P20. The binding data were fit globally to a simple one-to-one binding model.

Test [6] concerns the target T2, recombinant mouse osteopontin (R&D …). As to the kind of experiment: Biacore 3000 (SPR), IgG flowed over amine-coupled mouse Osteopontin; avidity, 1:1 fit. Here is the method:
as §3

Test [7] concerns the target T1, recombinant human osteopontin (R&D …). As to the kind of experiment: cell-based or functional assay. The source holds these as a separate data set.
The target of test [8] is T2, recombinant mouse osteopontin (R&D …). As to the kind of experiment: protein ELISA, Fab on mouse OPN protein. (An ELISA detects its analyte on a solid surface through an enzyme-linked reagent.)
Test [9] concerns the target T1, recombinant human osteopontin (R&D …). As to the kind of experiment: Biacore (SPR), Fab over immobilized human OPN.
In test [10] the target is T3, SPP1 peptide comprising functional domains of mouse OPN (27 aa) (mouse).
T3 construct: Target of the 'Peptide ELISA, mOPN' columns; also called mOPN peptide; SSP1 peptide
As to the kind of experiment: peptide ELISA, Fab on mouse SPP1 peptide.

Test [11] concerns the target T4, SPP1 peptide comprising functional domains of human OPN (27 aa) (human).
T4 construct: Target of the 'Peptide ELISA, hOPN' columns; also called hOPN peptide; SSP1 peptide
As to the kind of experiment: peptide ELISA, Fab on human SPP1 peptide.

In test [12] the target is T1, recombinant human osteopontin (R&D …). As to the kind of experiment: protein ELISA, Fab on human OPN protein.
The target of test [13] is T2, recombinant mouse osteopontin (R&D …). As to the kind of experiment: Biacore (SPR), Fab over immobilized mouse OPN. The procedure: as §2

T2 sequence (P10923 17-294 limits assumed): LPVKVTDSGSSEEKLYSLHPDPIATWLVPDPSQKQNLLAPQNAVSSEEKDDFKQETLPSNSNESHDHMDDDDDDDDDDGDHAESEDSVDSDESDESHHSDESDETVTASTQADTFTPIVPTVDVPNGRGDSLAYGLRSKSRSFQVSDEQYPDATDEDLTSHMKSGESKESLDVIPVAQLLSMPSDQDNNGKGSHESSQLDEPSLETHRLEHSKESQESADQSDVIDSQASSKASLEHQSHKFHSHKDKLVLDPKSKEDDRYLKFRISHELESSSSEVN
T1 sequence (P10451 other isoform, or with tags, fused parts or gaps limits assumed): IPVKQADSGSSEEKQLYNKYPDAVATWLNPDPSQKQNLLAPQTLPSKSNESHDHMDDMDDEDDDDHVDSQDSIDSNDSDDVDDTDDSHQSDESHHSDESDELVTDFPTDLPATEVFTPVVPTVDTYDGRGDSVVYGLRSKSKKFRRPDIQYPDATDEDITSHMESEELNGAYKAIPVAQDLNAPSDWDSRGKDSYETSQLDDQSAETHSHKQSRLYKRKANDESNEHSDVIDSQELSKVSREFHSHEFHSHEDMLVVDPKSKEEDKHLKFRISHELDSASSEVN

B1: HuCAL GOLD Fab 6993 (MOR-6993 Fab) (Fab, V domains shown)
VH: QVQLVESGGGLVQPGGSLRLSCAASGFTFTTSSMHWVRQAPGKGLEWVSRISSHGSNTYYADSVKGRFTISRDNSKNTLYLQMNSLRAEDTAVYYCARDMYRGVYGFALWGQGTLVTVSS
VL: DIELTQPPSVSVAPGQTARISCSGDAIRNYYVHWYQQKPGQAPVLVIYEDSDRPSGIPERFSGSNSGNTATLTISGTQAEDEADYYCQSYDKSNVVFGGGTKLTVL
notes: Fab format made in E. coli
As for B1, the Kd in [1] came out at 0.0002 µM; in test [2], 0.07 µM; in [4], 3.98 µM. Also, the “Adhesion Assay Mn2+-dependent hOPN, IC50” value in test [3] was determined as 0.0298 µM.

B2: MOR-6993 (full length human IgG2) (antibody, V domains shown)
VH: B1 VH
VL: DIELTQPPSVSVAPGQTARISCSGDAIRNYYVHWYQQKPGQAPVLVIYEDSDRPSGIPERFSGSNSGNTATLTISGTQAEDEADYYCQSYDKSNVVFGGGTKLTVLG
notes: Human IgG2, lambda light chain; made in HKB11 cells
Take B2: in test [5], the Kd was 0.000752 µM; the koff – broadly, the rate constant with which the complex falls apart – was determined as 0.00462 s⁻¹; the kon (usually the second-order rate constant of association) came out at 6.14e+06 M⁻¹ s⁻¹. In addition, in [6], the Kd was determined as 0.000747 µM, the koff was found to be 0.00496 s⁻¹ and the kon was determined as 6.64e+06 M⁻¹ s⁻¹. Besides, in test [7], the “Adhesion Assay Mn2+-dependent hOPN, IC50” value was found to be 0.0004 µM.

B3: HuCAL GOLD Fab 6991 (MOR-6991 Fab) (Fab, V domains shown)
VH: QVQLVESGGGLVQPGGSLRLSCAASGFTFNNYAVSWVRQAPGKGLEWVSGISYGGSNTYYADSVKGRFTISRDNSKNTLYLQMNSLRAEDTAVYYCARTLGGDFDHWGQGTLVTVSS
VL: DIVLTQPPSVSGAPGQRVTISCSGSSSNIGSNYVNWYQQLPGTAPKLLIYGNSKRPSGVPDRFSGSKSGTSASLAITGLQSEDEADYYCQSFTQMLLVFGGGTKLTVL
notes: Fab format made in E. coli
With B3, the Kd in test [1] came out at 0.003 µM; in test [2], 0.3 µM; in [4] it was 1.39 µM. Besides, the “Adhesion Assay Mn2+-dependent hOPN, IC50” value in test [3] amounted to 0.264 µM.

B4: MOR-6991 (full length human IgG2) (antibody, V domains shown)
VH: B3 VH
VL: DIVLTQPPSVSGAPGQRVTISCSGSSSNIGSNYVNWYQQLPGTAPKLLIYGNSKRPSGVPDRFSGSKSGTSASLAITGLQSEDEADYYCQSFTQMLLVFGGGTKLTVLG
notes: as for B2
Consider B4, for which, in [5], the Kd stood at 0.019 µM, the koff was determined as 0.00933 s⁻¹ and the kon stood at 491000 M⁻¹ s⁻¹. Moreover, in [7], the “Adhesion Assay Mn2+-dependent hOPN, IC50” value turned out to be 0.0006 µM.

B5: MOR-6990 (full length human IgG2) (antibody, V domains shown)
VH: QVQLVESGGGLVQPGGSLRLSCAASGFTFSNYVMHWVRQAPGKGLEWVSSIFGSGSDTYYADSVKGRFTISRDNSKNTLYLQMNSLRAEDTAVYYCARSASSGFGFAGYGIDSWGQGTLVTVSS
VL: DIELTQPPSVSVAPGQTARISCSGDSLRYYYAHWYQQKPGQAPVLVIYDDNKRPSGIPERFSGSNSGNTATLTISGTQAEDEADYYCQSWDLFHSSVFGGGTKLTVLG
notes: as for B2
For the molecule B5, in test [5], the Kd turned out to be 0.0209 µM, the koff is 0.00203 s⁻¹ and the kon was found to be 96900 M⁻¹ s⁻¹. Further, in [6], the Kd is 0.0047 µM, the koff was found to be 0.000864 s⁻¹ and the kon is 183000 M⁻¹ s⁻¹. In test [7], the “Adhesion Assay Mn2+-dependent hOPN, IC50” value was 0.0004 µM.

B6: HuCAL GOLD Fab 6990 (MOR-6990 Fab) (Fab, V domains shown)
VH: B5 VH
VL: DIELTQPPSVSVAPGQTARISCSGDSLRYYYAHWYQQKPGQAPVLVIYDDNKRPSGIPERFSGSNSGNTATLTISGTQAEDEADYYCQSWDLFHSSVFGGGTKLTVL
notes: Fab format made in E. coli
B6: the values for the Kd in [1], in [2] and in test [4] were 0.035 µM, 0.14 µM and 2.27 µM, respectively. Further, the “Adhesion Assay Mn2+-dependent hOPN, IC50” value in test [3] stood at 0.157 µM.

B7: MOR-10475 Fab (Fab, V domains shown)
VH: B5 VH
VL: B6 VL with S89A, F93I, H94N, S96H
notes: Only variable domains are tied to the Fab
Regarding B7, the EC50 (in general, the midpoint of the concentration-response curve) stood at 0.0006 µM in test [8], 0.0007 µM in [10], 0.0007 µM in test [11] and 0.0006 µM in [12]. In addition, the Kd came out at 0.08 µM in [9] and 0.041 µM in [13].
